# Source: US20220010021A1
# Ends that are not written are not given here.
# B1: P008 (peptide)
# peptide: HGEGTFTSDLSKQLEEERVQLFIEWLKATGPSSGAPPPS-NH2
# B2: P013 (peptide)
# peptide: GHGEGTFTSDLSKQLEEEAVRLFIEWLKAGGPKKIRYS-NH2
# B3: P014 (peptide)
# peptide: GHGEGTFTSDKSKQLEEEAVRLFIEWLKAGGPKKIRYS-NH2
# B4: P017 (peptide)
# peptide: GHGEGTFTSDLSKQLEEEAVRLFIEWLKAGGPSSGAPPPS-NH2
# B5: P021 (peptide)
# peptide: GHGEGTFTSDKSKQLEEEAVRLFIEWLKAGGPSSGAPPPS-NH2
# B6: P010 (peptide)
# peptide: HGEGTFTSDLSKQLEEEAVQLFIEWLLATGPSSGAPPPS-NH2
# B7: P019 (peptide)
# peptide: GHGEGTFTSDLSIQLEEEAVRLFIEWLLAGGPSSGAPPPS-NH2
# B8: P020 (peptide)
# peptide: GHGEGTFTSDLSIQLEEEAVRLFIEWLLATGPSSGAPPPS-NH2
# B9: Ab0370 (antibody, IgG4, V domains shown)
# VH: QVTLKESGPVLVKPTETLTLTCTVSGFSLNNARVGVSWIRQPPGKALEWLAWIFSNDEKSYSTSLKSRLTISKDTSKSQVVLTMTNMDPVDTATYYCARSVVTGGYYYEGMDVWGQGTTVTVSS
# VL: SYVLTQPPSVSVAPGQTARITCGGNNIGSESVHWYQQKPGQAPVLVVDDSDRPSGIPERFSGSNSGNTATLTISRVEAGDEADYYCQVHDGNSDHVVFGGGTKLTVLG
# Target: human GIP receptor (human) (UniProt P48546)
# Sequence (P48546 22-466): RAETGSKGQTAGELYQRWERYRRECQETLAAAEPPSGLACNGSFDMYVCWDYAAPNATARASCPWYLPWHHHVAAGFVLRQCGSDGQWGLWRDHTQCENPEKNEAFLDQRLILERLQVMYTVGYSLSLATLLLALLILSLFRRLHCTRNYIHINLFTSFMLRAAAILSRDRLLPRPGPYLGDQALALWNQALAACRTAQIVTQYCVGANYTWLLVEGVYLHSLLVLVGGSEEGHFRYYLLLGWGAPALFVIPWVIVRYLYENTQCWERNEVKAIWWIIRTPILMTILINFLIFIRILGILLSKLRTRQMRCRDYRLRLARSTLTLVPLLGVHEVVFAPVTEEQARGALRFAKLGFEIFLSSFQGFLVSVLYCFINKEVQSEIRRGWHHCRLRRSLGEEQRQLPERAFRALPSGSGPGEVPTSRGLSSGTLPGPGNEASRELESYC
# Assay: cell-based or functional assay
row,Binder,HTRF cAMP EC50 [nM]
1,B1,> 10
2,B2,> 10
3,B3,> 10
4,B4,> 10
5,B5,> 10

# Target: human glucagon receptor (human) (UniProt P47871)
# Sequence (P47871 26-477): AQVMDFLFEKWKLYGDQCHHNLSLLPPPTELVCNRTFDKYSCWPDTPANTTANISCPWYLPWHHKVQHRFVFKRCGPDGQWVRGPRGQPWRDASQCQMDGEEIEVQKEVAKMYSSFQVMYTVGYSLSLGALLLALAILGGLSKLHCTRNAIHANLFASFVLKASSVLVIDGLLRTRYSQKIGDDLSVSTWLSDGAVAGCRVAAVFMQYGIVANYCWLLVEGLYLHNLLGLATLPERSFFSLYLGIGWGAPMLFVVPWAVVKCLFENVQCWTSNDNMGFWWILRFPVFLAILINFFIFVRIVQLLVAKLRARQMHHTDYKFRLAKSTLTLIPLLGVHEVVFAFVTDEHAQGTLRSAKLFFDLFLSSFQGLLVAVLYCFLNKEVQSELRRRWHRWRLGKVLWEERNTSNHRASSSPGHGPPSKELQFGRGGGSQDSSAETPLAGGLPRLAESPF
# Assay: cell-based or functional assay
row,Binder,HTRF cAMP EC50 [nM]
1,B1,> 10
2,B2,> 10
3,B3,5.4
4,B4,> 10
5,B5,> 10

# Target: human GLP-1 receptor (human) (UniProt P43220)
# Sequence (P43220 24-463): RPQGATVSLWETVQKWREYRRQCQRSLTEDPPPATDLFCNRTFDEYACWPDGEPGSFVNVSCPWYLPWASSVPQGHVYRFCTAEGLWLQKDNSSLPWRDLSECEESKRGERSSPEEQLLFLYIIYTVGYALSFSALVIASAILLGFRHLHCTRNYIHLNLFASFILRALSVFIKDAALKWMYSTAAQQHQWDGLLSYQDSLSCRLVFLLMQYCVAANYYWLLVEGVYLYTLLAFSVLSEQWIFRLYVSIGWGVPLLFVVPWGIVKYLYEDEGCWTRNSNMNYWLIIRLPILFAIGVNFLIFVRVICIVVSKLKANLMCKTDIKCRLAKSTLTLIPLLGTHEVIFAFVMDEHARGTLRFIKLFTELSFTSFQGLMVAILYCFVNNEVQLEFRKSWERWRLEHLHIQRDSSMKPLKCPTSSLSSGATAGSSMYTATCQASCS
# Assay: cell-based or functional assay
row,Binder,HTRF cAMP EC50 [nM]
1,B1,0.0232
2,B6,0.0035
3,B2,0.0099
4,B3,0.0105
5,B4,0.0085
6,B7,0.0276
7,B8,0.206
8,B5,0.0276

# Target: human FGFR1c + KLB receptor complex on HEK293 iLite FGF21 reporter cells (human) (UniProt P11362)
# Sequence (P11362 22-822, chain 1 of 2): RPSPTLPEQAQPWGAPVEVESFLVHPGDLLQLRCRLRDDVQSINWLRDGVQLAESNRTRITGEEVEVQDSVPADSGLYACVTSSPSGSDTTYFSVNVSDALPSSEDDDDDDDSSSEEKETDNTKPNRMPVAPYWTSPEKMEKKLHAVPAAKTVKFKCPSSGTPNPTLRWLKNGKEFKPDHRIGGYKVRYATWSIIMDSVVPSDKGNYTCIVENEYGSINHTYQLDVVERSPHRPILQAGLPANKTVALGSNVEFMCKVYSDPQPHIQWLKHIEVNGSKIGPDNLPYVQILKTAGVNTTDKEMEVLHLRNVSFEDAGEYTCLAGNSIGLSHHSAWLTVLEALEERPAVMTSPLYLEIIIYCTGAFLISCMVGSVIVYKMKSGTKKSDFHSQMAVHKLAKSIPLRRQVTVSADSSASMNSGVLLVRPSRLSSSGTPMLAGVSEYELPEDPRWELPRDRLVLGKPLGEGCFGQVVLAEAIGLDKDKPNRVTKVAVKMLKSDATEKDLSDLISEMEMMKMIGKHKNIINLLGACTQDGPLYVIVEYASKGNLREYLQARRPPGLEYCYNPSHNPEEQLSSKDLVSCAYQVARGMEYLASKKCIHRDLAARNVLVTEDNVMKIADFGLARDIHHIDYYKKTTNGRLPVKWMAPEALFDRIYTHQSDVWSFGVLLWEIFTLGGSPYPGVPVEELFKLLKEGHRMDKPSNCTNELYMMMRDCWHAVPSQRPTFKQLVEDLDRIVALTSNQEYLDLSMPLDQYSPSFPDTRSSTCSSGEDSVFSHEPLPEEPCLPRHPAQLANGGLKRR
# Sequence (Q86Z14 whole entry, chain 2 of 2, further chain): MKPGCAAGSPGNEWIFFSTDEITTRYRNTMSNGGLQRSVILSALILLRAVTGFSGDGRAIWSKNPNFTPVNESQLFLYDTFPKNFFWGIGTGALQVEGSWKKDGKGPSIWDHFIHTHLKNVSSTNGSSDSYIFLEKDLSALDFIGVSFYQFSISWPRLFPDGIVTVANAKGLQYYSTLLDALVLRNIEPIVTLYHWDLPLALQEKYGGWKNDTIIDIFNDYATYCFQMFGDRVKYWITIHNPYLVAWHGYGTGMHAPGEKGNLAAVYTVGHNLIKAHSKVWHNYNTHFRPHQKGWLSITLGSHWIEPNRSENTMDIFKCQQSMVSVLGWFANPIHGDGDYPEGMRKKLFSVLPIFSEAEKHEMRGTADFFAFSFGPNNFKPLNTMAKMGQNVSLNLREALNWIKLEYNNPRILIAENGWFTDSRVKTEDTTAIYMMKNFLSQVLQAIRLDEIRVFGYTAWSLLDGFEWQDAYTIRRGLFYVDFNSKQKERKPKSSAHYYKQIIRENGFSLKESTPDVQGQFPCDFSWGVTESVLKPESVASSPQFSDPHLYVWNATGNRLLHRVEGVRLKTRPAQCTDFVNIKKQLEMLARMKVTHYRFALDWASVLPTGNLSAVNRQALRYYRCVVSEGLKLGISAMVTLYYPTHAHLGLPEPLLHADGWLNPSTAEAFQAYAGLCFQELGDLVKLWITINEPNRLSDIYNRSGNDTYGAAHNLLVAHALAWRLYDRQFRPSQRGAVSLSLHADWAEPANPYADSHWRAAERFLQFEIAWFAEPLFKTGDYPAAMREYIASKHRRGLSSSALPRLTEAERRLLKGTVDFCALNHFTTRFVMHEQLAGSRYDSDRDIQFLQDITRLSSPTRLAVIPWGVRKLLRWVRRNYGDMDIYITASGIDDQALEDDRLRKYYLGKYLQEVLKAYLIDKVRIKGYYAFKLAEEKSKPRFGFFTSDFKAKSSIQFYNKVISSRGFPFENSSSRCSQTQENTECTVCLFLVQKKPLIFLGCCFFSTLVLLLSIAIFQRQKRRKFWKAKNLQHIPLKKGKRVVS
# Assay: cell-based or functional assay
Binder,EC50 [nM],Emax [%]
B9,> 100,490
